Measured values taken from a protein production outcome set (Wang et al. 2014).

assay: label from the status in PepcDB records
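Note: failed if final PepcDB status was selected cloned or expressed and not failed if soluble or beyond.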

Sequence | protein production
MLKKLAGALRTLMSVPADNPRLLEAQYVALSRQLPLMYFVLLVNTWALAFTHRETAPVWLTLLVPVLLTVICGIRARKWLLTVNRPPPAAATILATLRGTNSLAGVIAAGFAAWSLSLYPYGGPYAQAHVAFFMGITVIVCIFCMMHLRPAALTTAVVVNTAFVIFFASTHNLIFIATAVNIVLVSIGMLIILHHQYRDFTSLVDVQVRTEQLSNENLLLANKDSLTGLPNRRQFFQTLDAAMSEALALRSKLAVGVLDLDGFKPVNDLYGHRTGDRLLMLVAERLNSVASNTVHVSRLGGDEFALVIKGDISNEALLALGKHLCDLMHESFELSDMPIQIGATLGMATFPASADNATQLFEFADYALYQGKNHNPGTTCLFSASHREQLHTDGVTEQALRRANLETEFHVMFQPIIESCTCETVAFEALARWNSPELGAVSPAHFIPIAERIGMINKLTAPLLTHALQMALSWPAPIRLSFNLSAHDCATWESVSTIVEIIENSGFDASRLDLEITETAVMQDIAQVQQAIAQFRQLGCGISLDDFGTGFSSLSQLHALALTKLKIDRSFVTGVHDNPASYKIVKSLVALSLDMSLGCVIEGVETQDELNALTSLGCTMVQGYFYSPPISFAETLAWLETPDHERAFGYAAACRI | failed
MLKKMLKSYDYSLIFAIVLLCGFGLVMVYSSSMITAVSRYGVSSNFFFMRQLFALIAGGALFILMALFPYKALAHQKFQKGILLVSVLALISLFVFGHVAGNAQSWFKIGGMSIQPGEFVKLVVILYLAAVYAKKQSYIDHLLTGVAPPVVMTLIICGLIAMQPDFGTAMIIGLIATCMILCSGFSGKTLVRLVILGGIVFILVSPIIYLNQDKILTEGRLARFESLEDPFKYANSSGLQVINSYYAISSGGIFGLGLGESIQKYGYLPESHTDFIMAVIAEELGIFGVLFVIFLLGFVVIKGFYIARKCEDPFGSLLAIGISSMIAIQSFINLGGVSGLIPITGVTLPFISYGGSSLVLLLGSMGILANISMFVKYSENKKKKEPLAPKGMKKKQLKKTVYL | failed
MLKLFAKYTSIGVLNTLIHWVVFGVCIYVAHTNQALANFAGFVVAVSFSFFANAKFTFKASTTTMRYMLYVGFMGTLSATVGWAADRCALPPMITLVTFSAISLVCGFVYSKFIVFRDAK | failed
MLKLTATKQTSQQRSLKMNTLTKLLAATMTLSAQAMAATPLTLDVYNADGNSFHVNATVVYGETEAMVVDTGFTKADALRIGAKVLDSGKTLKTIFISQADPDYYFGAEVLKQMFPQAEVIATPGVKAKIEQKLQGKLDFWAPKMGANAPVKPVLPTAYQGKTLEIDGQTIEIRGTEGELKHRPYLWIPANAAILGNVAVYGNVHLWMADAQTDSERKAWAEQLDEMAALKPKVVIPGHMTPGTAMDSSAITFSQKYLADFAKAKASSKNSAQLIEKMSKIYPDAGLPMALEIGAKVHTGEMKW | failed
MLKNHPKGLISASLTNMGERFGFYIMMGILLLFLQAKFGLSGKEASVIYSIFYASVYVLALVGGIIADSMKNYKGTILVGLIVMAAGYVMLGIPTPTQATGMTPWLIFTCAALAFISFGNGLFKGNLQALVGRMYDNDTYRDKRDSGFSLFYMFINVGAVFAPLVAVAIRNWWVQHNGFVYNADLPERCHQILNGTLPENAKAQVMEMIQAANNGTAVATEGLQEFALKYIQVFSTGFHYAFLAAVFFMAISFLIYIINKHQYPADQKANAVTEAHKDQKQEIKMAADEIRQRIIALCAVFGVVIFFWMSFHQNGVSLTQFAKDYIDLSSVKLDLGFTSIVGAEMFQSINPFFVVTLTPLLLFIFGFLKKRNMEPSTPKKIVIGMFIAALAFVVMAIGSMGLPTFEERNAGVEFTKVSPWLMVLTYMILTIAELFISPMGISFVSKVAPPHLQGIMQGLWLCATAVGNSLLFVGMILYESLSISATWIVFTCACALSMLVMLSMVKWLERVAK | failed
MLKQIRPLYLLLYLTPLMFDIILLYTYLDNGIIYWLDSNYPFSPLILLRKILFYYWNDPFFPGAPLFYSQDSLFMGIIIFLLYNIFHFSLELSEFIYLLLFIYLSQVGFVKLLNIIFEILEKRYSSYFTLIAGLLGGFIYSWGFYSYTPPILGVNYPFFIFYMLFPLVLYFSIKYIFKEKVISFSLIILYLILASGTLFSEFTYLLWSIVLYLFTVVPIWLLSRKPSFVQFTVKNLVIALIVIVAGLEQLYQTYNASIGAYQVGVHGEFLGKPIVIYETEAQYKNFPLSSFISLYSPEKYEIIGVLIFVLIFATILFIKGKTGKFFAPLLFLLLIIGGLSTGIINVLPLYSLHSTPIGFIAIGLMYSIQYIFSGFPVSFVSSLIIGYTLLYILEYLGKRRNYIKILFILIILLLSSSYIYSFRAGEVHPEIRAFNLPVNATNIFYPPPELVSVGNYLSVHDEFYNVIEFPMQYAAGMYDNNGTKAVWYTIYPLSDYIMGQVIKSPALANNAIIKSLANSAIYPIYKYFPAFNITNITNYFVLLGAKYIVLNKQEYPGPGVPLGYAGGYPWNYTKFIEALARTPNITLVMENSYYNVYMINLNVSLLYPSEGLAENLSSDQLFFLYANNMLKAQKQSVIYGLGAINITNISGVHIRVVNDYCNEVYEIQVNASRPFYLVFDEGYSPLWEVTINGEINTHHYIANGYANAWLMPAGNYVATLKLSILQTVHITYLLVFLGFIILVLIYVLQRFKIFRYFKNY | failed
MLKQRIITALLLVPVALYGVFMLPLWGFALFIQGVLMLGAWEWSPLMGVRRISARIAYTLFVGAIIGVLSWLAPYEHLWEGGELSKLIYYTILAGGVWWVVALAMIVNYPSSRRMWSRTRAIVGVFGLLIFIPTWAALVTVRSIDIDESRFFGGWVVLFILLLVWAADVGAYFAGVRYGRNKMMPAVSPGKTMEGLCGGVTLAFVVMMVVAHWTKVPADQFTGYYLTGLFTVVASVFGDLNESMFKRSAGVKDSGSILPGHGGILDRIDSLTAAVPIFTLAYLEFLH | failed
MLKQRVITAMWLLPLMLGMLFYAPQWLWAAFCGLIALIALWEYARMGGLCKIKTNHYLAATLVFGVVAYAGGWMLPNLVWYVVLAFWLAVMPLWLRFKWRLNGGWQVYAVGWLLVMPFWFALVSLRPHPDDALPLLAVMGLVWVADICAYFSGKAFGKHKIAPAISPGKSWEGAIGGAVCVAVYMTAVRSAGWLAFDTGWFDTVLIGLVLTVVSVCGDLLESWLKRAAGIKDSSKLLPGHGGVFDRTDSLIAVISVYAAMMSVLN | failed
MLKRLSVVHSPNGAPMAPSSHEWTDTLKDVYTARAANADLNARYIPLLPVNQRIQHERDRALANMLRQHLSVPPAQARVLEVGCGSGSNLLDLIRLGFDPANLMGNDLMDSRVEQARHRLPQAVPILAGNALDLDLEREGFDVLYQSTVFTSILDAQARRDLAQRMWHWTKPGGGVLWYDFAYNNPRNPNVRGVPLREVRALFPHARIHTARVTLAPPLARRLPATLYAPVNNLCPFLRTHLLCWIGKPAAP | failed
MLKRSIRLLTMGIIWFAISVANSTGRAEKSSDLERYLNTIQDPENIDKPFQPLQAGEYDQAYDYYIQGYYLKAFREALRRAEQNDPFAQTLVARIYMEGCAVPIDGARAALWFGRAAKQGEPQAQLRYGLMLFDGNFIAQNQEIGEEFIRKAVDAGVKEAYYYYGQLLLYKASREKQALAGVFSQSQENEAIDQALKWFLKGAALGDAAAAFAAAKILSLGTLTRPKDDRNARKLMEVAAQNKHLEAQILLAQWLVQGRGGETDFQRAFHLLLSNATKMIAPAQVALARLYRDGIGTKGDIVRAAAWYMLAKHAKIQAPDLEMMLEGMDHAQLEEARKEIIKLLPIF | failed
MLKRTFILIGLVLSFCSLPAQELIQITTRNTALVFRVANQSLRQVYYGPRLADTDVLQKQGNNFPAYSTYGMGEQNEVALHAVHADGNTSTLLNFENVKQESPEPGITLTTISLKDPLYPFQVKLFYKAYEESDLIEQWTIYQHTEKKPVTLYQFASAQLSFKSSSYRLTHFAGDWAGECNMSEVELTEGIKVIDSKLGTRATFFAHPMCLLSLNGRMTEDNGEVIGMALAWPANFKLEFEKNNNQELRVLAGMNPYASHYKLKKGDVFQTPSFLYTYSTKGNGQVSRNFHRWARKYGLRHGENSRYTLMNNWEATYFNFNEPKLKSIIEDAAGMGFELFLLDDGWFGQKHPRNNDDAGLGDWVVNKEKLPNGLGWLVKQCTDNDIKFGIWVEPEMVNPQSELFEKHPDWVIQQPEREHILFRRQLVLDLSNPEVQEFVYKSVHDILKDNPQIAFVKWDCNRAVTNPGSTYLPADEQSHIWIEYGRGLLNVFKKVRDSHPDVHFMLCSGGGGRLDYGSLRYFEEYWPSDNTDALQRILIQWGNSQFFPSIAMCCHVSASPNHQTGRTTPLKFRFDVAMQGALGMDLQPSTMNEKEVIFAKEAIKTYESIRNIVFTGDLYRILSPYEGNRTSMMYVLPDKSRAVFYAYQLKSHIGEVSAPMRFKGLIPDKKYNVKELNIYPGSRAATGSANGQSFSGDFLMNQGLPIGLSGDYSSAVIELEQQ | failed
MLKSGRLNFLKLNINSRLLYSTNPQLTKKVIGIDLGTTNSAVAYIRDSNDKKSATIIENDEGQRTTPSIVAFDVKSSPQNKDQMKTLVGMAAKRQNAINSENTFFATKRLIGRAFNDKEVQRDMAVMPYKIVKCESNGQAYLSTSNGLIQSPSQIASILLKYLKQTSEEYLGEKVNLAVITVPAYFNDSQRQATKDAGKLAGLNVLRVINEPTAAALSFGIDDKRNNGLIAVYDLGGGTFDISILDIEDGVFEVRATNGDTHLGGEDFDNVIVNYIIDTFIHENPEITREEITKNRETMQRLKDVSERAKIDLSHVKKTFIELPFVYKSKHLRVPMTEEELDNMTLSLINRTIPPVKQALKDADIEPEDIDEVILVGGMTRMPKIRSVVKDLFGKSPNSSVNPDETVALGAAIQGGILSGEIKNVLLLDVTPLTLGIETFGGAFSPLIPRNTT | failed
MLKSILKVAVISTIGLSTVACTVNDQRIARYGVGGAAIGALAGTAIAGSTPEAALTGAAVGAIAGSVTGAAVNQQRQQRQRQQRQIVAPHPAMCTYRNRKGQVYSAPCAQKVQTPQLCTYRDGRGVMYQAPCPQRVR | failed
MLKSVNLPVCHSLRNHLAVSSISTTPPSLIIPLLSPIFLRISSSSSNSVILNFSVKASFLVSKILLINLRAGFTGSLILSAGKPPFITSSSKSSIGTTPGVSKSQIFLVSLIICLPFVYPGIGAVPTECFPLSTFIIVLFPTFGYPINATLTLSLLIIFAIFFSSLLRIPVPFLSLAEIKTTGISLFLLYSSAHSLGTKSALFITNKSFLPLSKTILSSFLFLVPMGSLASTTSTTMSASSITSFTIAQAFFCFIPHHRYFKDYGTPWGIRGARVGTLDVGLILGSKPYFFWLHAFSERYYVG | failed
MLKVAIAEDDFRVAQIQEEFLLKIKDVKVMGKALNAKETMELLQREEIDLLLLDNYLPDGIGTDLLPQIHAEFPNVDVIMVTAANENHMLEKAIRNGVSNYLIKPVTLEKFVRTIEDYKRKKQLLHNNNEVNQTLIDNFFGISQTQDIKNLPTGVDPLTLQKVKGIIKGFEEGITIEEMGEQMGASRTTARRYLEYLVATNECTVEYTYGIIGRPERKYRIGRGL | failed
MLKVLFVPLNRNYVFDYIDDWKNIVADSLSRAGLSSEILIWPSTIKPSMKCFNWARKQYLAPCIIENMGNMFYDYLNEYFIVGIGYIDGYDYGLNFVFGEASPINRIAVVFTRRLDPRFYGEEPNYNLYLERVAKEIVHELGHLLGLSHCKRRTCVMSFSNSVYEVDAKTRFFCETCSNTLRKLNVLEHHHHHH | failed
MLKYQQIATEIETYIEEHQLQQGDKLPVLETLMAQFEVSKSTITKSLELLEQKGAIFQVRGSGIFVRKHKRKGYISLLSNQGFKKDLEDFNVTSKVIELDVRKPTPEAAENLNIGMDEDIYYVKRVRYINGQTLCYEESYYTKSIVTYLNNEIVSHSIFHYIREGLGLKIGFSDLFLHVGQLNEEEAEYLGLEAGLPKLYIESIFHLTNGQPFDYSKISYNYEQSQFVVQANSFLL | not failed
